Test results: the supplement of paper PMC11246515
± gives the standard deviation of the averaged measurements.

Test: total protein half-life in vivo (active degradation + dilution); higher = more stable protein
[1] = E. coli NCM3722 delta-clpP delta-lon delta-hslV, growth: N-lim chemostat, doubling time 6 h
[2] = E. coli NCM3722 delta-clpP, growth: N-lim chemostat, doubling time 6 h
[3] = E. coli NCM3722 delta-hslV, growth: N-lim chemostat, doubling time 6 h
[4] = E. coli NCM3722 delta-lon, growth: N-lim chemostat, doubling time 6 h
[5] = E. coli NCM3722 delta-smpB, growth: N-lim chemostat, doubling time 6 h
[6] = wild type E. coli NCM3722, growth: C-lim chemostat, doubling time 3 h
[7] = wild type E. coli NCM3722, growth: C-lim chemostat, doubling time 6 h
[8] = wild type E. coli NCM3722, growth: C-lim chemostat, doubling time 12 h
[9] = wild type E. coli NCM3722, growth: N-lim chemostat, doubling time 6 h
[10] = wild type E. coli NCM3722, growth: N-lim chemostat, doubling time 12 h
[11] = wild type E. coli NCM3722, growth: P-lim chemostat, doubling time 6 h
[12] = wild type E. coli NCM3722, growth: P-lim chemostat, doubling time 12 h

Sequence | total protein half-life in vivo [1] [h] | total protein half-life in vivo [2] [h] | total protein half-life in vivo [3] [h] | total protein half-life in vivo [4] [h] | total protein half-life in vivo [5] [h] | total protein half-life in vivo [6] [h] | total protein half-life in vivo [7] [h] | total protein half-life in vivo [8] [h] | total protein half-life in vivo [9] [h] | total protein half-life in vivo [10] [h] | total protein half-life in vivo [11] [h] | total protein half-life in vivo [12] [h]
MSKTHLTEQKFSDFALHPKVVEALEKKGFHNCTPIQALALPLTLAGRDVAGQAQTGTGKTMAFLTSTFHYLLSHPAIADRKVNQPRALIMAPTRELAVQIHADAEPLAEATGLKLGLAYGGDGYDKQLKVLESGVDILIGTTGRLIDYAKQNHINLGAIQVVVLDEADRMYDLGFIKDIRWLFRRMPPANQRLNMLFSATLSYRVRELAFEQMNNAEYIEVEPEQKTGHRIKEELFYPSNEEKMRLLQTLIEEEWPDRAIIFANTKHRCEEIWGHLAADGHRVGLLTGDVAQKKRLRILDEFTRGDLDILVATDVAARGLHIPAVTHVFNYDLPDDCEDYVHRIGRTGRAGASGHSISLACEEYALNLPAIETYIGHSIPVSKYNPDALMTDLPKPLRLTRPRTGNGPRRTGAPRNRRRSG [P0A8J8] | 6.02 ± 0.1 | 5.9 ± 0.37 | 5.52 ± 0.76 | 5.16 ± 0.18 | 4.94 ± 0.49 | 3.18 ± 0.11 | 5.73 ± 0.11 | 9.86 ± 0.77 | 4.71 ± 0.18 | 7.89 ± 0.44 | 5.06 ± 0.39 | 9.85 ± 0.23
MSKVCIIAWVYGRVQGVGFRYTTQYEAKRLGLTGYAKNLDDGSVEVVACGEEGQVEKLMQWLKSGGPRSARVERVLSEPHHPSGELTDFRIR [P0AB65] | 6.07 ± 0.29 | 5.82 ± 0.093 | 5.59 ± 0.28 | 5.89 ± 0.12 | 5.9 ± 0.89 | 3.38 ± 0.23 | 5.96 ± 0.08 | 8.66 | 5.32 ± 0.17 | 9.77 ± 1.8 | – | –
MSKVKSITRESWILSTFPEWGSWLNEEIEQEQVAPGTFAMWWLGCTGIWLKSEGGTNVCVDFWCGTGKQSHGNPLMKQGHQMQRMAGVKKLQPNLRTTPFVLDPFAIRQIDAVLATHDHNDHIDVNVAAAVMQNCADDVPFIGPKTCVDLWIGWGVPKERCIVVKPGDVVKVKDIEIHALDAFDRTALITLPADQKAAGVLPDGMDDRAVNYLFKTPGGSLYHSGDSHYSNYYAKHGNEHQIDVALGSYGENPRGITDKMTSADMLRMGEALNAKVVIPFHHDIWSNFQADPQEIRVLWEMKKDRLKYGFKPFIWQVGGKFTWPLDKDNFEYHYPRGFDDCFTIEPDLPFKSFL | 5.04 ± 0.82 | – | – | – | – | 3.56 | – | 11.2 | – | – | 3.67 ± 0.66 | 9.39
MSKVRLAIIGNGMVGHRFIEDLLDKSDAANFDITVFCEEPRIAYDRVHLSSYFSHHTAEELSLVREGFYEKHGIKVLVGERAITINRQEKVIHSSAGRTVFYDKLIMATGSYPWIPPIKGSDTQDCFVYRTIEDLNAIESCARRSKRGAVVGGGLLGLEAAGALKNLGIETHVIEFAPMLMAEQLDQMGGEQLRRKIESMGVRVHTSKNTLEIVQEGVEARKTMRFADGSELEVDFIVFSTGIRPRDKLATQCGLDVAPRGGIVINDSCQTSDPDIYAIGECASWNNRVFGLVAPGYKMAQVAVDHILGSENAFEGADLSAKLKLLGVDVGGIGDAHGRTPGARSYVYLDESKEIYKRLIVSEDNKTLLGAVLVGDTSDYGNLLQLVLNAIELPENPDSLILPAHSGSGKPSIGVDKLPDSAQICSCFDVTKGDLIAAINKGCHTVAALKAETKAGTGCGGCIPLVTQVLNAELAKQGIEVNNNLCEHFAYSRQELFHLIRVEGIKTFEELLAKHGKGYGCEVCKPTVGSLLASCWNEYILKPEHTPLQDSNDNFLANIQKDGTYSVIPRSPGGEITPEGLMAVGRIAREFNLYTKITGSQRLAMFGAQKDDLPEIWRQLIEAGFETGHAYAKALRMAKTCVGSTWCRYGVGDSVGLGVELENRYKGIRTPHKMKFGVSGCTRECSEAQGKDVGIIATEKGWNLYVCGNGGMKPRHADLLAADIDRETLIKYLDRFMMFYIRTADKLTRTAPWLENLEGGIDYLKAVIIDDKLGLNAHLEEEMARLREAVLCEWTETVNTPSAQTRFKHFINSDKRDPNVQMVPEREQHRPATPYERIPVTLVEDNA | 6.11 | 5.71 | – | – | – | – | – | – | – | 6.72 | – | –
MSLAGKKIVLGVSGGIAAYKTPELVRRLRDRGADVRVAMTEAAKAFITPLSLQAVSGYPVSDSLLDPAAEAAMGHIELGKWADLVILAPATADLIARVAAGMANDLVSTICLATPAPVAVLPAMNQQMYRAAATQHNLEVLASRGLLIWGPDSGSQACGDIGPGRMLDPLTIVDMAVAHFSPVNDLKHLNIMITAGPTREPLDPVRYISNHSSGKMGFAIAAAAARRGANVTLVSGPVSLPTPPFVKRVDVMTALEMEAAVNASVQQQNIFIGCAAVADYRAATVAPEKIKKQATQGDELTIKMVKNPDIVAGVAALKDHRPYVVGFAAETNNVEEYARQKRIRKNLDLICANDVSQPTQGFNSDNNALHLFWQDGDKVLPLERKELLGQLLLDEIVTRYDEKNRR [P0ABQ0] | 6.25 ± 0.61 | 6.16 ± 0.64 | 5.48 ± 0.55 | 5.48 ± 0.67 | 4.75 ± 0.079 | 3.15 ± 0.096 | 5.63 ± 0.26 | 12.5 ± 3.3 | 4.7 ± 0.6 | 8.72 ± 0.93 | 6.17 ± 0.24 | 11.8 ± 0.15
MSLFHLIAPSGYCIKQHAALRGIQRLTDAGHQVNNVEVIARRCERFAGTETERLEDLNSLARLTTPNTIVLAVRGGYGASRLLADIDWQALVARQQHDPLLICGHSDFTAIQCGLLAHGNVITFSGPMLVANFGADELNAFTEHHFWLALRNETFTIEWQGEGPTCRAEGTLWGGNLAMLISLIGTPWMPKIENGILVLEDINEHPFRVERMLLQLYHAGILPRQKAIILGSFSGSTPNDYDAGYNLESVYAFLRSRLSIPLITGLDFGHEQRTVTLPLGAHAILNNTREGTQLTISGHPVLKM | 4.96 ± 0.9 | 3.76 ± 0.25 | 4.05 ± 0.72 | 4.07 ± 0.22 | 3.65 ± 0.53 | 3.13 ± 0.084 | 5 ± 0.86 | 9.85 ± 0.41 | 3.693 ± 0.016 | 6.99 ± 0.87 | 6.058 ± 0.043 | 10.8 ± 0.56
MSLINTKIKPFKNQAFKNGEFIEITEKDTEGRWSVFFFYPADFTFVCPTELGDVADHYEELQKLGVDVYAVSTDTHFTHKAWHSSSETIAKIKYAMIGDPTGALTRNFDNMREDEGLADRATFVVDPQGIIQAIEVTAEGIGRDASDLLRKIKAAQYVASHPGEVCPAKWKEGEATLAPSLDLVGKI [P0AE08] | 2.82 ± 0.23 | 2.22 ± 0.28 | 1.91 ± 0.12 | 2.26 ± 0.079 | 2.119 ± 0.01 | 2.89 ± 0.21 | 5.05 ± 0.11 | 7.67 ± 0.6 | 2.03 ± 0.16 | 2.6085 ± 0.0015 | 5.49 ± 0.38 | 9.52 ± 0.29
